Test results taken from article PMC8600398.

Columns and labels:
[1] = molecular target: T1, 6His-CRP (cAMP receptor protein) (Escherichia coli (K-12 MG1655?)) (UniProt P0ACJ8); test: EMSA; conditions: 10 mM Tris-HCl pH 7.5, 50 mM NaCl, 5 mM MgSO4, 1 mM DTT, 1 mg/ml BSA, 200 uM cAMP, 10% glycerol, 12 ug/ml poly(dI-dC), 5 nM DNA, 37 C 15 min; 5% PAGE 0.25X TBE …
T1 sequence: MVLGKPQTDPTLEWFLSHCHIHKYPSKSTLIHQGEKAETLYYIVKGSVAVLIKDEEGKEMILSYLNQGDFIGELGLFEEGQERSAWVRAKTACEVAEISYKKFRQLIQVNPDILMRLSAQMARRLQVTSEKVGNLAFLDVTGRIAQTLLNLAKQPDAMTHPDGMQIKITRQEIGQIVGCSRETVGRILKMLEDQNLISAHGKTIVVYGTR

[2] = test system: 6His-CRP (cAMP receptor protein) (Escherichia coli (K-12 MG1655?)); test: EMSA; conditions: 10 mM Tris-HCl pH 7.5, 50 mM NaCl, 5 mM MgSO4, 1 mM DTT, 1 mg/ml BSA, 200 uM cAMP, 10% glycerol, 12 ug/ml poly(dI-dC), 5 nM DNA, 37 C 15 min; 5% PAGE 0.25X TBE …

Substance | binding [1] | Kd [2]
GCCTACCGCATCCGCTTGCGTATCGACGGCGTATTGCATCCTTTACCGGATGTTTCACCGGATGCCGGAGTCGCATTAACCGCCAGATTAAAAGTGCTGGGAAACCTGG (double strand) | no binding | –
ytfK promoter region -515/+3 | – | 25 nM
